Assay results reported in US20260184814A1, “BROADLY NE[…] INFLUENZA NEURAMINIDASE” (priority 2022, published 2026).
Several values for one entry are separate records, joined by “and”; a condition that tells them apart may be missing. Equal values may be shown once. Read-outs that look alike come from different tables or passages of the source.

Experiments:
human C1q (human) [1] = biological target: human C1q (human) (UniProt P02745); experiment: MSD [cont'd]
human FcγRIIb (human) [2] = biological target: human FcγRIIb (human) (UniProt P31994); experiment: MSD [cont'd]
Chain of human FcγRIIb (human) (P31994 43-217 limits assumed): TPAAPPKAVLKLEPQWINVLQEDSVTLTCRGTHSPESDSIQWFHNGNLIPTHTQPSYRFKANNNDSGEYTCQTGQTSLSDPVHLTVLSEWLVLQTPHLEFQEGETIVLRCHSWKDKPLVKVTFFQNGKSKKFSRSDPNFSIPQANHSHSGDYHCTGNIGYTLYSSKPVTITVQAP

human FcRn (human) [3] = biological target: human FcRn (human) (UniProt P55899); experiment: MSD [cont'd]
Chain of human FcRn (human) (P55899 24-297 limits assumed, chain 1 of 2): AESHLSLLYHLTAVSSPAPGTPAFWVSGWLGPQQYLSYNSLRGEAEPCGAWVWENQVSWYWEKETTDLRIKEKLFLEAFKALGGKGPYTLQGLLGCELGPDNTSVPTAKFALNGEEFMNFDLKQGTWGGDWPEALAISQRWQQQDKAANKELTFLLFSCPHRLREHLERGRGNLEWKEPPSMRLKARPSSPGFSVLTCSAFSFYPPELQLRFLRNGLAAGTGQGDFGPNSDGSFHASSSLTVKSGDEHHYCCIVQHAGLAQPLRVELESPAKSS
Chain of human FcRn (human) (chain, as listed by the source limits assumed, chain 2 of 2): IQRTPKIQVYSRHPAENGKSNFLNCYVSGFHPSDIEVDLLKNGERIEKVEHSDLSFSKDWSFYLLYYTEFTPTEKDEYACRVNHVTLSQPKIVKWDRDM

[4] = biological target: human FcγRIIa (R131 allele) (human) (UniProt P12318); experiment: MSD [cont'd]
Chain of human FcγRIIa (R131 allele) (human) (P12318 34-218 H167R limits assumed): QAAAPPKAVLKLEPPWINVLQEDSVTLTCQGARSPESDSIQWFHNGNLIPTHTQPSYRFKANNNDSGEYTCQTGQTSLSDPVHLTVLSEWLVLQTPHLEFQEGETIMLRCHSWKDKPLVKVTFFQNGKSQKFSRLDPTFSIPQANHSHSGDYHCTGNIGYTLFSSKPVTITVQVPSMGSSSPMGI

[5] = biological target: human FcγRIIa (H131 allele) (human) (UniProt P12318); experiment: MSD [cont'd]
Chain of human FcγRIIa (H131 allele) (human) (P12318 34-218 limits assumed): as the sequence (P12318 34-218 H167R limits assumed) above, with R134H counted along it

[6] = biological target: human FcγRIIIa (V158 allele) (human) (UniProt P08637); experiment: MSD [cont'd]
Chain of human FcγRIIIa (V158 allele) (human) (P08637 17-208 F176V limits assumed): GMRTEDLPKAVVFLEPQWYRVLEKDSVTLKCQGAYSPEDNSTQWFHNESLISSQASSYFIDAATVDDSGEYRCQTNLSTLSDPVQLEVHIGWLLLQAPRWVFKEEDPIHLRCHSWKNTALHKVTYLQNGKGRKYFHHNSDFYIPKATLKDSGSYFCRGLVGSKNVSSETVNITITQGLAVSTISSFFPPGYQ

human FcγRIIIb (human) [7] = biological target: human FcγRIIIb (human) (UniProt O75015); experiment: MSD [cont'd]
Chain of human FcγRIIIb (human) (O75015 17-200 limits assumed): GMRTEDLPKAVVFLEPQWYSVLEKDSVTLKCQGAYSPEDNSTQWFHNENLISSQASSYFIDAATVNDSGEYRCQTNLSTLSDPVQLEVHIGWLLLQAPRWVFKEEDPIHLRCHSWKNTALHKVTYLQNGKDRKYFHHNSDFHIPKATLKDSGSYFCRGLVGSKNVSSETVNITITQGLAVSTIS

[8] = biological target: human FcγRIIIa (F158 allele) (human) (UniProt P08637); experiment: MSD [cont'd]
Chain of human FcγRIIIa (F158 allele) (human) (P08637 17-208 limits assumed): as the sequence (P08637 17-208 F176V limits assumed) above, with V160F counted along it

human FcγRIIb (human) [9] = biological target: human FcγRIIb (human) (UniProt P31994)
[10] = biological target: human FcγRIIa (H131 allele) (human) (UniProt P12318)
[11] = biological target: human FcγRIIIa (V158 allele) (human) (UniProt P08637)
[12] = biological target: human FcγRIIIa (F158 allele) (human) (UniProt P08637)
human C1q (human) [13] = biological target: human C1q (human) (UniProt P02745); experiment: MSD
human FcγRIIb (human) [14] = biological target: human FcγRIIb (human) (UniProt P31994); experiment: MSD
[15] = biological target: human FcγRIIa (R131 allele) (human) (UniProt P12318); experiment: MSD
[16] = biological target: human FcγRIIa (H131 allele) (human) (UniProt P12318); experiment: MSD
[17] = biological target: human FcγRIIIa (V158 allele) (human) (UniProt P08637); experiment: MSD
human FcγRIIIb (human) [18] = biological target: human FcγRIIIb (human) (UniProt O75015); experiment: MSD
[19] = biological target: human FcγRIIIa (F158 allele) (human) (UniProt P08637); experiment: MSD
human FcγRIIb (human) [20] = biological target: human FcγRIIb (human) (UniProt P31994); remark: listed apart in the source
[21] = biological target: human FcγRIIa (H131 allele) (human) (UniProt P12318); remark: listed apart in the source
[22] = biological target: human FcγRIIIa (V158 allele) (human) (UniProt P08637); remark: listed apart in the source
[23] = biological target: human FcγRIIIa (F158 allele) (human) (UniProt P08637); remark: listed apart in the source
human FcRn (human) [24] = biological target: human FcRn (human) (UniProt P55899); experiment: MSD
human FcRn (human) [25] = biological target: human FcRn (human) (UniProt P55899); experiment: MSD, pH 6 [cont'd]

Chain of human C1q (human) (P02745 23-245 limits assumed, chain 1 of 3): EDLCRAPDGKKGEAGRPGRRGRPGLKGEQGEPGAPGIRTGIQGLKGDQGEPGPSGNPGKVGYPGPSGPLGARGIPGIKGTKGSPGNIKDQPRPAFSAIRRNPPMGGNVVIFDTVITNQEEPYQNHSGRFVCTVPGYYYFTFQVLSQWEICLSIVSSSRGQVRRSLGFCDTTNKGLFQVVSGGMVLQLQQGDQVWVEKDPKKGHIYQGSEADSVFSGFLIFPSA
Chain of human C1q (human) (P02746 28-253 limits assumed, chain 2 of 3, further chain): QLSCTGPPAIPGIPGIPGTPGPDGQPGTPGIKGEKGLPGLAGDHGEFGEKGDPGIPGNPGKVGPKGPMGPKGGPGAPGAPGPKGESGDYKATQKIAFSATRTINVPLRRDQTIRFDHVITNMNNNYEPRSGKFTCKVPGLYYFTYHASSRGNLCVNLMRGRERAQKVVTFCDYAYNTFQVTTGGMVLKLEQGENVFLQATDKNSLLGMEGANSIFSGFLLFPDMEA
Chain of human C1q (human) (P02747 29-245 limits assumed, chain 3 of 3, further chain): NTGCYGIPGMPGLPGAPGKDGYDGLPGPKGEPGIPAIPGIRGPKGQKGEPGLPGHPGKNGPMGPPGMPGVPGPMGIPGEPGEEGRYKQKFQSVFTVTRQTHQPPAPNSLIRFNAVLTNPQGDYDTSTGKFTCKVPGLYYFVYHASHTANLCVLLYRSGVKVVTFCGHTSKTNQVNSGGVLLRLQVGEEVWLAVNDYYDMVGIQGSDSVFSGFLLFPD

Substance: A330L_I332E (antibody)
- fold-change vs wt (human C1q (human) [1]): 0.03 fold
- fold-change vs wt (human FcγRIIb (human) [2]): 0.66 fold
- fold-change vs wt (human FcRn (human) [3]): 1.12 fold
- fold-change vs wt [4]: 0.52 fold
- fold-change vs wt [5]: 0.42 fold
- fold-change vs wt [6]: 3.52 fold
- fold-change vs wt (human FcγRIIIb (human) [7]): 5.19 fold
- fold-change vs wt [8]: 11.9 fold
- FcγR reporter signaling, fold-change vs wt [cont'd] (human FcγRIIb (human) [9]): 0.69 fold
- FcγR reporter signaling, fold-change vs wt [cont'd] [10]: 0.71 fold
- FcγR reporter signaling, fold-change vs wt [cont'd] [11]: 4.38 fold
- FcγR reporter signaling, fold-change vs wt [cont'd] [12]: 11.9 fold

Substance: G236A (antibody)
- fold-change vs FY1 rIgG1m3 (human C1q (human) [13]): 0.59 fold and 0.36 fold
- fold-change vs FY1 rIgG1m3 (human FcγRIIb (human) [14]): 0.6 fold and 1.1 fold
- fold-change vs FY1 rIgG1m3 [15]: 4.8 fold and 6.3 fold
- fold-change vs FY1 rIgG1m3 [16]: 5.9 fold and 12.1 fold
- fold-change vs FY1 rIgG1m3 [17]: 0.4 fold and 0.6 fold
- fold-change vs FY1 rIgG1m3 (human FcγRIIIb (human) [18]): 0.82 fold
- fold-change vs FY1 rIgG1m3 [19]: 0.6 fold and 0.8 fold

Substance: G236A_A330L_I332E_M428L_N434S (antibody)
- FcγR reporter signaling, fold-change vs wt [cont'd] (human FcγRIIb (human) [20]): 0.35 fold
- FcγR reporter signaling, fold-change vs wt [cont'd] [21]: 2.32 fold
- FcγR reporter signaling, fold-change vs wt [cont'd] [22]: 3.92 fold
- FcγR reporter signaling, fold-change vs wt [cont'd] [23]: 13.5 fold
- fold-change to WT Fc (human FcγRIIb (human) [14]): 0.422 fold
- fold-change vs FY1 rIgG1m3 (human FcγRIIb (human) [14]): 0.4 fold
- fold-change vs FY1 rIgG1m3-MLNS (human FcγRIIb (human) [14]): 0.8 fold
- fold-change vs wt (human FcγRIIb (human) [14]): 0.42 fold
- fold-change vs FY1 rIgG1m3 (human FcRn (human) [24]): 12.3 fold
- fold-change vs FY1 rIgG1m3-MLNS (human FcRn (human) [24]): 0.68 fold
- fold-change vs FY1 rIgG1m3 [15]: 1.3 fold
- fold-change vs FY1 rIgG1m3-MLNS [15]: 2.5 fold
- fold-change vs wt [15]: 1.27 fold
- fold-change to WT Fc [16]: 2.89 fold
- fold-change vs FY1 rIgG1m3 [16]: 2.9 fold
- fold-change vs FY1 rIgG1m3-MLNS [16]: 3.8 fold
- fold-change vs wt [16]: 2.89 fold
- fold-change to WT Fc [17]: 1.56 fold
- fold-change vs FY1 rIgG1m3 [17]: 1.6 fold
- fold-change vs FY1 rIgG1m3-MLNS [17]: 2.1 fold
- fold-change vs wt [17]: 1.56 fold
- fold-change vs FY1 rIgG1m3 (human FcγRIIIb (human) [18]): 1.4 fold
- fold-change vs FY1 rIgG1m3-MLNS (human FcγRIIIb (human) [18]): 1.9 fold
- fold-change vs wt (human FcγRIIIb (human) [18]): 1.4 fold
- fold-change vs FY1 rIgG1m3 [19]: 9.4 fold
- fold-change vs FY1 rIgG1m3-MLNS [19]: 14.4 fold
- fold-change vs wt [19]: 9.41 fold
- fold-change vs wt (human C1q (human) [1]): 0 fold
- fold-change vs wt (human FcRn (human) [3]): 12.3 fold
- fold-change to WT Fc (human FcRn (human) [25]): 12.3 fold

Substance: G236A_S239D_A330L_I332E (antibody)
- fold-change vs wt (human C1q (human) [1]): 0 fold
- fold-change vs wt (human FcγRIIb (human) [2]): 1.94 fold
- fold-change vs wt (human FcRn (human) [3]): 1.02 fold
- fold-change vs wt [4]: 9.68 fold
- fold-change vs wt [5]: 5.15 fold
- fold-change vs wt [6]: 8.03 fold
- fold-change vs wt (human FcγRIIIb (human) [7]): 14 fold
- fold-change vs wt [8]: 55.1 fold
- FcγR reporter signaling, fold-change vs wt [cont'd] (human FcγRIIb (human) [9]): 1.2 fold
- FcγR reporter signaling, fold-change vs wt [cont'd] [10]: 2.47 fold
- FcγR reporter signaling, fold-change vs wt [cont'd] [11]: 6.02 fold
- FcγR reporter signaling, fold-change vs wt [cont'd] [12]: 19.4 fold

Substance: GA (Fc-LS) (antibody)
- fold-change vs FY1 rIgG1m3-MLNS (human C1q (human) [13]): 0.35 fold
- fold-change vs FY1 rIgG1m3-MLNS (human FcγRIIb (human) [14]): 1.1 fold
- fold-change vs FY1 rIgG1m3-MLNS (human FcRn (human) [24]): 0.95 fold
- fold-change vs FY1 rIgG1m3-MLNS [15]: 6.9 fold
- fold-change vs FY1 rIgG1m3-MLNS [16]: 10 fold
- fold-change vs FY1 rIgG1m3-MLNS [17]: 0.52 fold
- fold-change vs FY1 rIgG1m3-MLNS (human FcγRIIIb (human) [18]): 0.84 fold
- fold-change vs FY1 rIgG1m3-MLNS [19]: 0.93 fold

Substance: GRLR (Fc-LS) (antibody)
- fold-change vs FY1 rIgG1m3-MLNS (human FcγRIIb (human) [14]): 0.38 fold
- fold-change vs FY1 rIgG1m3-MLNS (human FcRn (human) [24]): 0.69 fold
- fold-change vs FY1 rIgG1m3-MLNS [15]: 0.38 fold
- fold-change vs FY1 rIgG1m3-MLNS [16]: 0.28 fold
- fold-change vs FY1 rIgG1m3-MLNS [17]: 0.08 fold
- fold-change vs FY1 rIgG1m3-MLNS (human FcγRIIIb (human) [18]): 0.7 fold
- fold-change vs FY1 rIgG1m3-MLNS [19]: 0.25 fold

Substance: IgG1 antibody with Fc variant G236A (afucosylated)
- fold-change (reference not given) (human C1q (human) [13]): 0.16 fold
- fold-change (reference not given) (human FcγRIIb (human) [14]): 0.6 fold and 1.1 fold
- fold-change (reference not given) [15]: 6.1 fold and 9.9 fold
- fold-change (reference not given) [16]: 5.4 fold and 9.5 fold
- fold-change (reference not given) [17]: 6.7 fold
- fold-change (reference not given) (human FcγRIIIb (human) [18]): 2.1 fold and 1.8 fold
- fold-change (reference not given) [19]: 17.2 fold and 35.6 fold
